According to patent US20060294600A1:

Target: Runx2 expressed from pCMV5 Cbfa1 in transfected cells
Experiment: cell-based or functional assay

transcriptional activity of Runx2 (luciferase reporter, transient transfection in Cos-7 cells; 6xOSE2 artificial promoter and human osteocalcin promoter): 3 fold
Substance: Fhl2 expressed from pCMX Fhl2 in Cos-7 cells (from UniProt Q14192 1-279)
